Results on 6 molecules are retold here after article PMC3410853 (PLoS Pathogens, 2012).

The target of data set [1] is porcine aminopeptidase N (pAPN) on the surface of BHK-pAPN cells (UniProt P15145). Briefly: flow cytometry on cells (FACS, percentage of stained cells). Conditions: same concentration of wild type and mutant SA-Fc proteins, parent: est. 100, read off a plot.
Data set [2] concerns the target SA-Fc fusion protein (bivalent SA-Fc variant; TGEV S residues 481 to 650). Described as above. The following applies: transiently transfected 293T cells expressing similar amounts of HA-tagged pAPN proteins; parent: est. 100; read off a plot.
Data set [3] has as its target T1, SA-Fc fusion protein (bivalent SA-Fc variant; TGEV S residues 481 to 650) (Transmissible gastroenteritis virus …, strain).
T1 construct: not shown: HA, N-terminal, kept; Fc (human IgG1), C-terminal, kept
T1 chain: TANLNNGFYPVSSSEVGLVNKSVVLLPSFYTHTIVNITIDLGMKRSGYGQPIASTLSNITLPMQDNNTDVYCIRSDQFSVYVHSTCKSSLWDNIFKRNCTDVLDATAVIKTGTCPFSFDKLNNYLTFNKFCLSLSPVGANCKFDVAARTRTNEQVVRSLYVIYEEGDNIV
Briefly: ELISA.

Data set [4] concerns the molecule itself. Description: SEC; soluble pAPN ectodomain on Superdex 200 16/60, HEPES-saline buffer pH 7.5.

With “SA-Fc fusion protein (bivalent SA-Fc variant; TGEV S residues 481 to 650) N632A”, the percent of parent in data set [1] is 15%.

Take “SA-Fc fusion protein (bivalent SA-Fc variant; TGEV S residues 481 to 650) V617Ngly”: the percent of parent in data set [1] worked out at 105%.

In the case of “recombinant membrane bound pAPN with an HA tag at the C-terminal end (from UniProt P15145) N736A”, the percent of parent in data set [2] turned out to be 3%.

Consider “recombinant membrane bound pAPN with an HA tag at the C-terminal end (from UniProt P15145) T738V”, for which the percent of parent in data set [2] came out at 3%.

B1: TGEV-neutralizing monoclonal antibody 1AF10 (site A, subsite Ac) (antibody, V domains shown)
VH: QVQLQQSGPELVKPGASVKISCKASGYAFSSSWMNWVKQRPGQGLEWIGRIYPGDGETNYSEKFKGKATLTADKSSSTAYMHLSSLTSVDSAVYFCARGGYRYDPYYAMDYWGQGTSVTVSS
VL: DILLTQSPAILSVSPGERVSLSCRASQSIGTSIHWYQQRTNGSPRPLIKYASESISGIPSRFSGSGSGTDFTLNINSVESEDIADYFCQQTDSWPTTFGAGTKLELK
notes: also called 1AF10 mAb; mAb 1AF10; source: hybridoma cells; purified mAb or hybridoma supernatant; copies: 2 + 2
Turning to B1, the binding result in data set [3] is given as “binds”.

B2: engineered soluble pAPN (ectodomain, residues 36 to 963) (domain or fragment)
chain: EKNKNAEHVPQAPTSPTITTTAAITLDQSKPWNRYRLPTTLLPDSYNVTLRPYLTPNADGLYIFKGKSIVRLLCQEPTDVIIIHSKKLNYTTQGHMVVLRGVGDSQVPEIDRTELVELTEYLVVHLKGSLQPGHMYEMESEFQGELADDLAGFYRSEYMEGNVKKVLATTQMQSTDARKSFPCFDEPAMKATFNITLIHPNNLTALSNMPPKGSSTPLAEDPNWSVTEFETTPVMSTYLLAYIVSEFQSVNETAQNGVLIRIWARPNAIAEGHGMYALNVTGPILNFFANHYNTSYPLPKSDQIALPDFNAGAMENWGLVTYRENALLFDPQSSSISNKERVVTVIAHELAHQWFGNLVTLAWWNDLWLNEGFASYVEYLGADHAEPTWNLKDLIVPGDVYRVMAVDALASSHPLTTPAEEVNTPAQISEMFDSISYSKGASVIRMLSNFLTEDLFKEGLASYLHAFAYQNTTYLDLWEHLQKAVDAQTSIRLPDTVRAIMDRWTLQMGFPVITVDTKTGNISQKHFLLDSESNVTRSSAFDYLWIVPISSIKNGVMQDHYWLRDVSQAQNDLFKTASDDWVLLNVNVTGYFQVNYDEDNWRMIQHQLQTNLSVIPVINRAQVIYDSFNLATAHMVPVTLALDNTLFLNGEKEYMPWQAALSSLSYFSLMFDRSEVYGPMKKYLRKQVEPLFQHFETLTKNWTERPENLMDQYSEINAISTACSNGLPQCENLAKTLFDQWMSDPENNPIHPNLRSTIYCNAIAQGGQDQWDFAWGQLQQAQLVNEADKLRSALACSNEVWLLNRYLGYTLNPDLIRKQDATSTINSIASNVIGQPLAWDFVQSNWKKLFQDYGGGSFSFSNLIQGVTRRFSSEFELQQLEQFKKNNMDVGFGSGTRALEQALEKTKANIKWVKENKEVVLNWFIEHS
In the case of B2, in data set [4], the “stoichiometry N” value came out at 2.
